Assay [1] has as its target T1, gp130 bound OSM-M1 (gp130:OSM-M1) (human, UniProt P40189 23-619).
T1 construct: extracellular domain; Non-covalent complex formed on the plate: gp130 coated, then 200 nM OSM-M1; also called OSM-M1 with gp130; not shown: N-terminal FLAG tag
T1 sequence 1: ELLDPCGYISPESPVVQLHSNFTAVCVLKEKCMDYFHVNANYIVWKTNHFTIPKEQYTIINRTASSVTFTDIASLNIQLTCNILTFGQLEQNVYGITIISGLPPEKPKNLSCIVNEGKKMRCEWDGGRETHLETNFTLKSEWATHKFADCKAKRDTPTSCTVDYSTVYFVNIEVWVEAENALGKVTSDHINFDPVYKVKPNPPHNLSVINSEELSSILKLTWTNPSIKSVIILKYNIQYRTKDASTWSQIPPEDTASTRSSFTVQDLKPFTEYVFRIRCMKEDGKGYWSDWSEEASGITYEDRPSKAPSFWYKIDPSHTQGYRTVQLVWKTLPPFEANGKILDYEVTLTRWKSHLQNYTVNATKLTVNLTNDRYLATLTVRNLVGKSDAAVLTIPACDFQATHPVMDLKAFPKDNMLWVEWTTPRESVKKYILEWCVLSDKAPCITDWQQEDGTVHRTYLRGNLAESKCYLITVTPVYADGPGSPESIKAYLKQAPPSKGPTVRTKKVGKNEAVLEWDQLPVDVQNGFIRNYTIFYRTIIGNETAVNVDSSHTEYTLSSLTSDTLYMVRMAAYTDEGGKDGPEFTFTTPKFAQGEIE
T1 sequence 2: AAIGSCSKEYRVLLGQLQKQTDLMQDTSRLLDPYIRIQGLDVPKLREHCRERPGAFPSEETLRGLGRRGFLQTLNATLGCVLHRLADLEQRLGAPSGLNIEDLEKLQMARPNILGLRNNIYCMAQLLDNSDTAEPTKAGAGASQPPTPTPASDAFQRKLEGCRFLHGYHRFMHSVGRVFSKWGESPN
Put plainly: ELISA, apparent KD (KD,App), gp130 coated, saturating cytokine, soluble OSMR titrated (with gp130). The method, then:
(§1) FIG. 13 graphically depicts an ELISA analysis of soluble OSMR and soluble LIFR binding with LIF, OSM-WT, OSM-M1 and OSM-M2 or gp130 bound LIF (gp130:LIF), OSM-WT (gp130:OSM-WT), OSM-M1 (gp130:OSM-M1) and OSM-M2 (gp130:OSM-M2). Cytokines (LIF, OSM-WT, OSM-M1 or OSM-M2) immobilized on an ELISA plate in the absence (A,C) or presence (B,D) of gp130 were treated with various concentrations of soluble OSMR (A,B) or soluble LIFR (C,D). Equilibrium KD values were estimated using a non-linear curve fitting to the binding data using GraphPad Prism (Graph Pad Software. LaJolla, Calif.). In addition, see Table 3.
(§2) Enzyme-linked immunosorbent assay (ELISA): ELISA was used to evaluate the equilibrium binding strength of the interaction between the cytokines and their receptors. This technique has traditionally been used as a sensitive method to quantify the binding affinities between two interacting proteins. However, unlike in SPR, ELISA involves immobilization of the proteins on a flat plastic surface driven by hydrophobic and ionic interactions. This might cause some distortion in the 3 dimensional structure of immobilized protein which leads to inaccuracies in the estimation of dissociation constants. It is thus important to bear in mind that the values estimated using this technique are to be used only for comparison between species but not as true equilibrium binding constants. The results obtained using this technique will thus be presented as apparent equilibrium dissociation constants (K_{D,App}). For direct interaction studies, cytokines (LIF, OSM-WT, OSM-M1 or OSM-M2) were immobilized on the 96 well ELISA plate by incubating the wells with 200 μl of 5 nM cytokine solution in PBS, pH 7.4 overnight at 4° C. The wells were then blocked with blocking buffer (4% BSA in PBS) for 1 hour at room temperature. […]

Assay [2] has as its target T2, gp130 bound OSM-WT (gp130:OSM-WT) (human, UniProt P40189 23-619).
T2 construct: extracellular domain; Non-covalent complex formed on the plate: gp130 coated, then 200 nM OSM-WT; also called OSM-WT with gp130; not shown: N-terminal FLAG tag
T2 sequence 1: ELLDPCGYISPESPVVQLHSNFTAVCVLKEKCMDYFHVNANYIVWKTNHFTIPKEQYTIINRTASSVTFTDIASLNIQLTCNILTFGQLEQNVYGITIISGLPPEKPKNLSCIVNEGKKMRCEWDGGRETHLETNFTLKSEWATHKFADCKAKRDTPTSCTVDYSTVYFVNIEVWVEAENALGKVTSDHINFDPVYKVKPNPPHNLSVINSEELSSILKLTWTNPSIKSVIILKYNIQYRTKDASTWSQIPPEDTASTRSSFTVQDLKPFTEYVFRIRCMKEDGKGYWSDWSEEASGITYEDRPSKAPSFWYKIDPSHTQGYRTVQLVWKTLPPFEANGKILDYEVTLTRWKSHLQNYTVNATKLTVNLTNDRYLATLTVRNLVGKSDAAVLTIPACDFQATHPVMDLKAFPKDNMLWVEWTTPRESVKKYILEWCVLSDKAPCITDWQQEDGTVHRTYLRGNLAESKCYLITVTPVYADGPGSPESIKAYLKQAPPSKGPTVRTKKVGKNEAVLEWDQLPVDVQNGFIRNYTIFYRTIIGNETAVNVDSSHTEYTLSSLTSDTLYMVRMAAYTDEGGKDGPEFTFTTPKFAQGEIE
T2 sequence 2: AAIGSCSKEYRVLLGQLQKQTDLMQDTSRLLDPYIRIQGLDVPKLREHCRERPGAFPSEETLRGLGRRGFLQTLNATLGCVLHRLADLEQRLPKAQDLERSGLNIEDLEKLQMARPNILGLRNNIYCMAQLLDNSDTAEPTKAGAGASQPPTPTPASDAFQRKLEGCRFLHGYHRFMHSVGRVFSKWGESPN
The assay is described as above. As to the method: as §1, §2

Assay [3] addresses T3, gp130 bound OSM-M2 (gp130:OSM-M2) (human, UniProt P40189 23-619).
T3 construct: extracellular domain; Non-covalent complex formed on the plate: gp130 coated, then 200 nM OSM-M2; also called OSM-M2 with gp130; not shown: N-terminal FLAG tag
T3 sequence 1: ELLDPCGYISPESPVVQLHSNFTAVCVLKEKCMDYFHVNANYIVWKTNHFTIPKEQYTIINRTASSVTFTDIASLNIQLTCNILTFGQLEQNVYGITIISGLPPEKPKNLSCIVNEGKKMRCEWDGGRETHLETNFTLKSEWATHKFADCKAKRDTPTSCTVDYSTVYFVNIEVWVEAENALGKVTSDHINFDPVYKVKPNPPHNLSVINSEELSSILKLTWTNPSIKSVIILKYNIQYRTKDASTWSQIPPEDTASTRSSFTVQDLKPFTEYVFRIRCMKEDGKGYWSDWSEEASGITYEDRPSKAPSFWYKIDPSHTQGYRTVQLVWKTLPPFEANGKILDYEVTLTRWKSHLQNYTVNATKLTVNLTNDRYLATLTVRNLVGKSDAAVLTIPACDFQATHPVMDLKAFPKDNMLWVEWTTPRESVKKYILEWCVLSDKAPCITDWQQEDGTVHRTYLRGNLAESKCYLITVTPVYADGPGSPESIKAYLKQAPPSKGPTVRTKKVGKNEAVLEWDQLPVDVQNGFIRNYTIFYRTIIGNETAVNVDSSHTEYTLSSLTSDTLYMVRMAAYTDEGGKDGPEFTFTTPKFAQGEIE
T3 sequence 2: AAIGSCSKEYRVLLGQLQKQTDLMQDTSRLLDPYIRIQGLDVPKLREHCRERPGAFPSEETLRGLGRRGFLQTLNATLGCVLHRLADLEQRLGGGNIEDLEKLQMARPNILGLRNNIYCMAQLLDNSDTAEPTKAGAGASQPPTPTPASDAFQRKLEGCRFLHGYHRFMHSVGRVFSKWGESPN
The assay is described as above. The method, then:
as §1, §2

The target of assay [4] is T4, gp130 bound LIF (gp130:LIF) (human, UniProt P40189 23-619; P15018 23-202).
T4 construct: Non-covalent complex formed on the plate: gp130 coated, then saturating cytokine; also called LIF with gp130
Put plainly: ELISA, gp130 coated and loaded with LIF, soluble OSMR titrated, anti-OSMR detection, O.D at 450 nm. Background: In an ELISA, binding on a coated surface is turned into a signal by an enzyme label.

T4 sequence (P15018 23-202 limits assumed, one chain of several): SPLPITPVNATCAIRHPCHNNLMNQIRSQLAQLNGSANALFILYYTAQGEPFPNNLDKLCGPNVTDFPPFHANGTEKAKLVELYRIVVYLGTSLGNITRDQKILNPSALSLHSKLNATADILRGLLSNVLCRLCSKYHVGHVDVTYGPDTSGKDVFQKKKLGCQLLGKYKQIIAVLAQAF

B1: soluble human OSMR (Oncostatin M receptor) (receptor, UniProt Q99650 28-740, looked up)
chain: ERLPLTPVSLKVSTNSTRQSLHLQWTVHNLPYHQELKMVFQIQISRIETSNVIWVGNYSTTVKWNQVLHWSWESELPLECATHFVRIKSLVDDAKFPEPNFWSNWSSWEEVSVQDSTGQDILFVFPKDKLVEEGTNVTICYVSRNIQNNVSCYLEGKQIHGEQLDPHVTAFNLNSVPFIRNKGTNIYCEASQGNVSEGMKGIVLFVSKVLEEPKDFSCETEDFKTLHCTWDPGTDTALGWSKQPSQSYTLFESFSGEKKLCTHKNWCNWQITQDSQETYNFTLIAENYLRKRSVNILFNLTHRVYLMNPFSVNFENVNATNAIMTWKVHSIRNNFTYLCQIELHGEGKMMQYNVSIKVNGEYFLSELEPATEYMARVRCADASHFWKWSEWSGQNFTTLEAAPSEAPDVWRIVSLEPGNHTVTLFWKPLSKLHANGKILFYNVVVENLDKPSSSELHSIPAPANSTKLILDRCSYQICVIANNSVGASPASVIVISADPENKEVEEERIAGTEGGFSLSWKPQPGDVIGYVVDWCDHTQDVLGDFQWKNVGPNTTSTVISTDAFRPGVRYDFRIYGLSTKRIACLLEKKTGYSQELAPSDNPHVLVDTLTSHSFTLSWKDYSTESQPGFIQGYHVYLKSKARQCHPRFEKAVLSDGSECCKYKIDNPEEKALIVDNLKPESFYEFFITPFTSAGEGPSATFTKVTTPDEHSSM
notes: extracellular domain; Bought; also called soluble OSMR
For B1, the Kd came to 3.71 nM in assay [1], 10.9 nM in assay [2] and 2.19 nM in assay [3]. In addition, the binding result in assay [4] was “no binding (tested: 75 nM)”.

For the origin of these results see patent US20100310509A1 (published 2010).
